Publication doi:10.1101/2025.11.23.689978
Where “and” joins values, the source holds several entries; their conditions need not be identical. Equal values may be shown once.

Tests used:
[1] = target: AimC_(BMbtp14), purified (phage BMBtp14 (B. cereus group phage)); experiment: SEC-MALS
[2] = target: AimC_(ϕ106), purified (phage ϕ106 (of Bacillus inaquosorum strain KCTC 13429)); experiment: SEC-MALS

Row | stoichiometry N [1] | stoichiometry N [2] | Substance
1 | 2 and 4 |  | AimC_(BMbtp14), purified (natural protein)
2 |  | 2 | AimC_(ϕ106), purified (natural protein)
